According to the RNAGym collection of RNA variant scans (doi:10.7554/elife.80360):

B1: Twister Ribozyme (parent)
chain: AACACUGCCAAUGCCGGUCCCAAGCCCGGAUAAAAGUGGAGGGGGCGG

Variants of: B1
Assay: self-cleavage, relative activity (ratio to wild type); higher = more cleavage; co-transcriptional

Variant	self-cleavage
G24A G42C	0.0923
G24A G42U	0.091
G24A G29A	0.155
G24A G29U	0.1
A23G G42A	0.128
A23G G42U	0.121
A23U G24C	0.109
A23U G24A	0.0917
G24A G44U	0.0885
G24U G38A	0.0987
G24U G38U	0.0819
G24U G29U	0.103
G24U G29C	0.0648
G24C U37G	0.12
G24C U37C	0.0778
G24A A33U	0.0989
G24A G38A	0.101
G24A G38C	0.106
G24C A34G	0.103
A23G G41U	0.0995
A23G G41A	0.15
A23G G45A	0.332
G24A U37C	0.067
G24A U37G	0.0506

Variant	self-cleavage
A23U A40G	0.0874
A23U A40U	0.0967
G24C U31C	0.108
G24C U31G	0.0739
G24A G36C	0.12
G24U A34G	0.189
G24U A34C	0.101
G24C C25G	0.118
G24C C25A	0.325
A23G G44A	0.604
A23G G44U	0.458
G24A C25A	0.115
G24A C25U	0.0836
A23U G39A	0.061
A23U G39C	0.0667
G24C G38U	0.0774
G24C G38C	0.144
G24C G38A	0.106
G24A A30G	0.125
G24A A30C	0.0875
G24A A30U	0.0686
G24A A34C	0.0735
G24A A34U	0.0893
A23U G43A	0.118

Variant	self-cleavage
A23U G43U	0.112
A23G G38C	0.289
G24U C46G	0.081
G24A G43U	0.0769
G24U G41U	0.0892
G24A	0.125
G24U	0.128
G24C	0.102
G24A C46A	0.0898
G24A C46U	0.107
G24C G36C	0.0888
G24C G36A	0.115
G24A G28C	0.0749
G24A G28U	0.0869
G24A G41A	0.0508
G24A C27G	0.105
G24A C27A	0.0771
A23U	0.697
G24C A40C	0.141
G24C A40G	0.0575
G24U G43A	0.0702
G24U G43U	0.0757
A23U A33C	0.186
A23U A33G	0.18

Variant	self-cleavage
A23U A35U	0.614
A23U A35G	0.17
A23U A35C	0.71
G24U G28U	0.0893
A23G G39C	0.102
A23G G39U	0.142
A23U A30C	0.115
G24A G39C	0.0986
G24U C27A	0.106
G24U C27G	0.0792
G24C C27U	0.0994
G24A C26U	0.077
G24U G47C	0.131
G24U A40U	0.0893
G24U A40C	0.099
A23U A32G	0.45
G24U A30U	0.109
G24U A30G	0.111
A23U G44C	0.578
G24C G41C	0.0814
G24C G41U	0.0978
G24C A30U	0.0977
G24C A30G	0.096
G24C A30C	0.0817

Variant	self-cleavage
A23U G28A	0.211
A23U G28C	0.249
A23U G28U	0.279
G24C A33G	0.101
A23U C26G	0.101
A23G U31C	0.544
A23G U31G	0.746
A23G U31A	0.602
G24C A32U	0.13
G24C A32G	0.0875
G24C A32C	0.118
A23G G43C	0.125
G24C G45U	0.119
G24U G36U	0.0805
A23U C25U	0.116
A23U C25A	0.0618
G24U A35G	0.0925
G24A A35U	0.113
G24A A35C	0.102
G24U A32C	0.113
G24C A35G	0.0669
G24C A35U	0.0871
G24C G44U	0.0952
G24A G47A	0.096

Variant	self-cleavage
G24A G47U	0.0892
A23U C46A	0.325
A23U C46U	0.731
A23U C46G	0.652
A23U G42U	0.0934
A23U G42C	0.148
A23U G42A	0.125
A23G U37G	0.17
A23G U37A	0.111
A23U U31G	0.643
A23U A34U	0.121
G24C C26U	0.126
G24C C26A	0.0895
A23U G36A	0.132
A23U G36U	0.0806
G24C G43A	0.0738
G24A A32G	0.11
G24A A32U	0.0696
G24U G42U	0.0953
G24A U31G	0.105
A23G G47C	0.209
A23G G47A	0.265
A23U C27U	0.305
G24C G47U	0.0811

Variant	self-cleavage
A23U G38C	0.499
A23U G38U	0.236
A23U G38A	0.342
G24U G39C	0.0634
G24U G39A	0.0948
G24U G44C	0.0809
G24U G44U	0.097
G24U G44A	0.127
G24C G39C	0.0715
A23G G36U	0.0865
A23U G45U	0.249
A23U G45C	0.141
A23U U37A	0.178
A23U U37G	0.0831
A23U U37C	0.0907
G24A A40G	0.0838
G24A A40U	0.112
G24C G29A	0.132
G24C G29U	0.0988
G24C C46A	0.109
G24A G45C	0.0846
G24A G45U	0.118
A23U G47U	0.163
